One series deals with Recombinant mouse SOUL. The following applies: printed as range in words; ref [19] Sato et al., 2004; cited from earlier work.
The next series deals with 15N-labelled SOUL. The series can be described thus: 15N-1H HSQC NMR titration of 15N-labelled SOUL with haemin. The following applies: 0.5, 1, 2, 3 and 4 equivalents haemin, Tris/HCl buffer, 25 °C; more than 1 day of observation. Format: binding, human.
A short description of series [1]: UV–visible spectrum of haemin alone. Format: physicochemical. As to conditions: 10 μM haemin; 20 mM Tris/HCl (pH 7.5), 0.15 M NaCl; 30 min, 25 °C.
Series [2] relates to mitochondrial permeability transition / cell death. The following applies: cited from earlier work.
The test system of another series is caspase 8. As to the kind of experiment: caspase 8 cleavage experiment. The following applies: human BID as control; results not shown. It counts as biochemical.
For series [3], the target named is human Bcl-xL lacking only the C-terminal transmembrane domain (after amino acid 209) (human, UniProt Q07817-1 1-209). As to the kind of experiment: NMR titration.
Chain of human Bcl-xL lacking only the C-terminal transmembrane domain (after amino acid 209) (Q07817 1-209): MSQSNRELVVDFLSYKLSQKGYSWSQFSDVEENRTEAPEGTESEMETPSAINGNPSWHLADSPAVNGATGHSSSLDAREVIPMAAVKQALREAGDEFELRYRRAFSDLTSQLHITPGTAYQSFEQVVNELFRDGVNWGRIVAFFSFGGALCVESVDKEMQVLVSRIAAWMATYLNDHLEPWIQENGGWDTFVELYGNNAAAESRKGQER

We go through four molecules from paper PMC3174058 (Biochemical Journal, 2011).

Values joined by “and” are separate entries in the source; they are usually repeats but may differ in a detail not shown here. Equal values may be shown once.

`C=CC1=C(C)c2cc3[n-]c(cc4[n-]c(cc5nc(cc1n2)C(C)=C5C=C)c(C)c4CCC(=O)O)c(CCC(=O)O)c3C.[Fe+2]` [haem]: the “dissociation constant for haem binding” value at Recombinant mouse SOUL is reported as “nanomolar range”. For `C=CC1=C(C)c2cc3[n-]c(cc4nc(cc5[n-]c(cc1n2)c(C)c5C=C)C(C)=C4CCC(=O)O)c(CCC(=O)O)c3C.[Cl-].[Fe+3]` [haemin], the “change of SOUL HSQC spectrum with haemin” value with 15N-labelled SOUL is on record as “the spectrum remained unaltered”. Further, the “haemin absorption peak position, haemin alone” value in series [1] was 390 nM.

B1: SOUL: human SOUL protein, recombinant, expressed in E. coli, histidine tag removed by thrombin (protein)
chain: MAEPLQPDPGAAEDAAAQAVETPGWKAPEDAGPQPGSYEIRHYGPAKWVSTSVESMDWDSAIQTGFTKLNSYIQGKNEKEMKIKMTAPVTSYVEPGSGPFSESTITISLYIPSEQQFDPPRPLESDVFIEDRAEMTVFVRSFDGFSSAQKNQEQLLTLASILREDGKVFDEKVYYTAGYNSPVKLLNRNNEVWLIQKNEPTKENE
modifications: left off: His tag, C-terminal, cleaved
B1: in series [2] (human SOUL, BH3 domain deleted, ref [21] Szigeti et al., 2010), the “effect of deletion of putative BH3 domain on apoptotic effects” value is given as “abolished the apoptotic effects of SOUL”. Further, the “induction of MPT” value in series [2] (leads to mitochondrial swelling and cell death, ref [20] Szigeti et al., 2006) was “can induce the MPT”. Further, the “cleavage by caspase 8” value with caspase 8 was “is not a substrate of this enzyme”. For SAQKNQEQLLTLASILREDGKVFDEK [SOUL BH3 peptide (26-amino-acid-long peptide spanning residues 147–172 of human SOUL)], the Kd – broadly, a measure of binding affinity in units of concentration – in series [3] is 47.8 µM and 41.3 µM.
